Experimental data taken from EP2025757A2.
Ends that are not written are not given here.

What was measured:
[1] = target: serpin enzyme complex receptor (SEC-R) on human hepatoma cell lines (human); test: 125I-C105Y specific binding on cells
[2] = target: serpin enzyme complex receptor (SEC-R) on human hepatoma cell lines (human); test: 125I-C105Y saturation binding on HuH7 cells, Scatchard analysis
[3] = target: serpin enzyme complex receptor (SEC-R) on human hepatoma cell lines (human); test: 125I-C105Y saturation binding on HepG2 (low) cells, Scatchard analysis
[4] = target: serpin enzyme complex receptor (SEC-R) on human hepatoma cell lines (human); test: 125I-C105Y saturation binding on HepG2 (high) cells, Scatchard analysis
[5] = target: serpin enzyme complex receptor (SEC-R) on human hepatoma cell lines (human); test: fluorescence microscopy of HuH7 cells with 100 nM fluorescein labeled peptide at 4 C; cells per 100 counted
[6] = target: serpin enzyme complex receptor (SEC-R) on human hepatoma cell lines (human); test: fluorescence microscopy of HepG2(low) cells with 100 nM fluorescein labeled peptide at 4 C; cells per 100 counted
[7] = target: serpin enzyme complex receptor (SEC-R) on human hepatoma cell lines (human); test: fluorescence microscopy of HepG2(high) cells with 100 nM fluorescein labeled peptide at 4 C; cells per 100 counted

CSIPPEVKFNKPFVYLI (also: radio-iodinated with 125I, site not given here) [Peptide C105Y]
fold less specific binding, HepG2 (low) against HepG2 (high) [1]: 7.5 fold
fold less specific binding, HepG2 (low) against HuH7 [1]: 10 fold
fold more C105Y bound, HuH7 against HepG2 (high) [1]: 1.5 fold
Kd [2]: 70 nM
Kd [3]: 22.5 nM
Kd [4]: 50 nM

CFLEAIPMSIPPEVKFNKPFVFLIIHRD (also: labelled with fluorescein isothiocyanate, site not given here) [fluorescein labeled C1315 peptide]
Average % Fluorescent Cells [5]: 14.3%
Average % Fluorescent Cells [6]: 1.8%
Average % Fluorescent Cells [7]: 20.4%
